Data on 6 molecules can be found in patent publication US20240400715A1 (VIBRANT PHARMA, published 2024).

The EC50 is the concentration that produces a half-maximal response. High values mean weaker potency, low ones greater potency. Usually Kd stands for a measure of binding affinity in units of concentration. Read a low Kd as a tighter complex. What is called koff is the rate constant with which the complex falls apart. The low end stands for slow dissociation, the high end for fast dissociation. As a reminder, the kon is the rate constant with which the complex forms. High values mean fast association, low ones slow association.

Substitutions are numbered along the chain they refer to. “And” between values parts separate entries of the source, which are not always exact repeats. Equal values may be shown once.

The target of assay [1] is T1, human CD3 on Jurkat cells (human, UniProt P07766 23-207; P04234 22-171; P09693 23-182).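 Note: flow cytometric binding of bispecific antibodies to Jurkat T cells, threefold serial dilutions incubated half an hour in the cold, EC50 taken from the fitted binding curve.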
T1 construct: whole, on cells; CD3 complex as on Jurkat (Clone E6-1) cells; also called CD3 expressing cells (Jurkat)
Nature of the assay: FACS, Jurkat cells. (In general: Flow cytometry measures light scatter and fluorescence of single cells or particles in a stream.)

The target of assay [2] is T2, human CD3ε/δ (ACRO systems, CDD-H52W1) (human, UniProt P07766 23-126; P04234 22-105).
T2 construct: Bought protein; also called human CD3ϵ/CD3δ; human CD3 epsilon/delta antigen
Nature of the assay: BLI, antibody captured, antigen in solution.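 Note: bispecific antibodies captured on AHIC biosensors to a 1.5 nm loading signal, in PBST with 0.02% detergent.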
Description: The bispecific antibodies were diluted to 5 ag/ml, and 1.5 nm protein was coupled to the surface of the AHIC sensor chip through 0.02% PBST.

B1: Fab-Knob+CEA-Hole (101) (bispecific antibody, human IgG4 S228P, kappa, F234A L235A)
heavy: EVKLLESGGGLVQPKGSLKLSCAASGFTFNTYAMNWVRQAPGKGLEWVARIRSKYNNYATYYADSVKDRFTISRDDSQSILYLQMNNLKTEDTAMYYCVRHGNFGNSYVSWFAYWGQGTLVTVSSASTKGPSVFPLAPCSRSTSESTAALGCLVKDYFPEPVTVSWNSGALTSGVHTFPAVLQSSGLYSLSSVVTVPSSSLGTKTYTCNVDHKPSNTKVDKRVESKYGPPCPPCPAPEAAGGPSVFLFPPKPKDTLMISRTPEVTCVVVDVSQEDPEVQFNWYVDGVEVHNAKTKPREEQFNSTYRVVSVLTVLHQDWLNGKEYKCKVSNKGLPSSIEKTISKAKGQPREPQVYTLPPCQEEMTKNQVSLWCLVKGFYPSDIAVEWESNGQPENNYKTTPPVLDSDGSFFLYSRLTVDKSRWQEGNVFSCSVMHEALHNHYTQKSLSLSL
chain: EVQLVESGGGFVQAGESLTLSCTSSTLTFTPYRMAWYRQAPGKQRDLVADISSGDGRTTNYADFAKGRFTISRDNIKNTVFLRMTNLKPEDTAVYYCNTFVSFVGIARSWGQGTQVTVSSESKYGPPCPPCPAPEAAGGPSVFLFPPKPKDTLMISRTPEVTCVVVDVSQEDPEVQFNWYVDGVEVHNAKTKPREEQFNSTYRVVSVLTVLHQDWLNGKEYKCKVSNKGLPSSIEKTISKAKGQPREPQVCTLPPSQEEMTKNQVSLSCAVKGFYPSDIAVEWESNGQPENNYKTTPPVLDSDGSFFLVSRLTVDKSRWQEGNVFSCSVMHEALHNRFTQKSLSLSL
light: QAVVTQESALTTSPGETVTLTCRSSTGAVTTSNYANWVQEKPDHLFTGLIGGTNKRAPGVPARFSGSLIGDKAALTITGAQTEDEAIYFCALWYSNLWVFGGGTKVEIKRTVAAPSVFIFPPSDEQLKSGTASVVCLLNNFYPREAKVQWKVDNALQSGNSQESVTEQDSKDSTYSLSSTLTLSKADYEKHKVYACEVTHQGLSSPVTKSFNRGEC
notes: Anti-CD3 TA1 Fab + anti-CEA VHH C17 on human IgG4 knob-into-hole Fc, kappa light chain
For B1, in assay [1], the EC50 is 6.28 µg/mL and 48.3 nM. In assay [2], the Kd amounted to 0.979 nM, the koff turned out to be 0.0004 s⁻¹ and the kon amounted to 409000 M⁻¹ s⁻¹.

B2: Knob+CEA-Fab-Hole (202) (bispecific antibody, human IgG4 S228P, kappa, F234A L235A)
chain: ESKYGPPCPPCPAPEAAGGPSVFLFPPKPKDTLMISRTPEVTCVVVDVSQEDPEVQFNWYVDGVEVHNAKTKPREEQFNSTYRVVSVLTVLHQDWLNGKEYKCKVSNKGLPSSIEKTISKAKGQPREPQVYTLPPCQEEMTKNQVSLWCLVKGFYPSDIAVEWESNGQPENNYKTTPPVLDSDGSFFLYSRLTVDKSRWQEGNVFSCSVMHEALHNHYTQKSLSLSL
heavy: B1 heavy with Y354C, C359S, W371S, L373A, Y412V, H440R, Y441F
light: QAVVTQESALTTSPGETVTLTCRSSTGAVTTSNYANWVQEKPDHLFTGLIGGTNKRAPGVPARFSGSLIGDKAALTITGAQTEDEAIYFCALWYSNLWVFGGGTKVEIKRTVAAPSVFIFPPSDEQLKSGTASVVCLLNNFYPREAKVQWKVDNALQSGNSQESVTEQDSKDSTYSLSSTLTLSKADYEKHKVYACEVTHQGLSSPVTKSFNRGECGGGGSGGGGSEVQLVESGGGFVQAGESLTLSCTSSTLTFTPYRMAWYRQAPGKQRDLVADISSGDGRTTNYADFAKGRFTISRDNIKNTVFLRMTNLKPEDTAVYYCNTFVSFVGIARSWGQGTQVTVSS
notes: VHH linked to the CL of the Fab; human IgG4 knob-into-hole Fc
In the case of B2, the EC50 in assay [1] was 0.292 µg/mL and 2.25 nM. In assay [2], this molecule displayed a Kd of 3.9 nM, a koff of 0.000866 s⁻¹ and a kon of 222000 M⁻¹ s⁻¹.

B3: 302 (TA3), configuration of FIG. 1W (bispecific antibody, IgG4)
heavy: EVQLVESGGGLVQPGGSLRLSCAASGYSFTGYTMNWVRQAPGKGLEWVALINPYKGVSTYNQKFKDRFTISVDKSKNTAYLQMNSLRAEDTAVYYCARSGYYGDSDWYFDVWGQGTLVTVSSASTKGPSVFPLAPCSRSTSESTAALGCLVKDYFPEPVTVSWNSGALTSGVHTFPAVLQSSGLYSLSSVVTVPSSSLGTKTYTCNVDHKPSNTKVDKRVESKYGPPCPPCPAPEAAGGPSVFLFPPKPKDTLMISRTPEVTCVVVDVSQEDPEVQFNWYVDGVEVHNAKTKPREEQFNSTYRVVSVLTVLHQDWLNGKEYKCKVSNKGLPSSIEKTISKAKGQPREPQVYTLPPCQEEMTKNQVSLWCLVKGFYPSDIAVEWESNGQPENNYKTTPPVLDSDGSFFLYSRLTVDKSRWQEGNVFSCSVMHEALHNHYTQKSLSLSL
chain: B1 chain
light: DIQMTQSPSSLSASVGDRVTITCRASQDIRNYLNWYQQKPGKAPKLLIYYTSRLESGVPSRFSGSGSGTDYTLTISSLQPEDFATYYCQQGNTLPWTFGQGTKVEIK
notes: chains put together from VH/VL, CH1, knob-Fc; IgG4, kappa; also called CEA-CD3 bispecific antibody 302; not shown: kappa light chain constant domain (CL)
Take B3: the EC50 in assay [1] was 1.4 µg/mL and 10.8 nM. In addition, in assay [2], binding was put at a Kd of 3.63 nM, the koff was 0.000879 s⁻¹ and the kon stood at 246000 M⁻¹ s⁻¹.

B4: Fab-Knob+Hole-CEA (103) (bispecific antibody, human IgG4 S228P, kappa, F234A L235A)
heavy: B1 heavy
chain: ESKYGPPCPPCPAPEAAGGPSVFLFPPKPKDTLMISRTPEVTCVVVDVSQEDPEVQFNWYVDGVEVHNAKTKPREEQFNSTYRVVSVLTVLHQDWLNGKEYKCKVSNKGLPSSIEKTISKAKGQPREPQVCTLPPSQEEMTKNQVSLSCAVKGFYPSDIAVEWESNGQPENNYKTTPPVLDSDGSFFLVSRLTVDKSRWQEGNVFSCSVMHEALHNRFTQKSLSLSLGGGGSGGGGSEVQLVESGGGFVQAGESLTLSCTSSTLTFTPYRMAWYRQAPGKQRDLVADISSGDGRTTNYADFAKGRFTISRDNIKNTVFLRMTNLKPEDTAVYYCNTFVSFVGIARSWGQGTQVTVSS
light: B1 light
notes: Anti-CD3 TA1 Fab + anti-CEA VHH C17 on human IgG4 knob-into-hole Fc
On to B4, for which, in assay [1], the EC50 is 0.848 µg/mL and 6.52 nM. In assay [2], this molecule returned a Kd of 0.662 nM, a koff of 0.000233 s⁻¹ and a kon of 352000 M⁻¹ s⁻¹.

B5: CEA-Fab-Knob-+Hole (201) (bispecific antibody, human IgG4 S228P, kappa, F234A L235A)
heavy: B1 heavy
chain: B2 chain with Y131C, C136S, W148S, L150A, Y189V, H217R, Y218F
light: B2 light
notes: as for B2
B5: the EC50 in assay [1] is 0.312 µg/mL and 2.4 nM. Besides, in assay [2], the Kd is 2.59 nM, the koff stood at 0.00046 s⁻¹ and the kon was determined as 178000 M⁻¹ s⁻¹.

B6: Fab-Knob-CEA+Hole (102) (bispecific antibody, human IgG4 S228P, kappa, F234A L235A)
heavy: EVKLLESGGGLVQPKGSLKLSCAASGFTFNTYAMNWVRQAPGKGLEWVARIRSKYNNYATYYADSVKDRFTISRDDSQSILYLQMNNLKTEDTAMYYCVRHGNFGNSYVSWFAYWGQGTLVTVSSASTKGPSVFPLAPCSRSTSESTAALGCLVKDYFPEPVTVSWNSGALTSGVHTFPAVLQSSGLYSLSSVVTVPSSSLGTKTYTCNVDHKPSNTKVDKRVESKYGPPCPPCPAPEAAGGPSVFLFPPKPKDTLMISRTPEVTCVVVDVSQEDPEVQFNWYVDGVEVHNAKTKPREEQFNSTYRVVSVLTVLHQDWLNGKEYKCKVSNKGLPSSIEKTISKAKGQPREPQVYTLPPCQEEMTKNQVSLWCLVKGFYPSDIAVEWESNGQPENNYKTTPPVLDSDGSFFLYSRLTVDKSRWQEGNVFSCSVMHEALHNHYTQKSLSLSLGGGGSGGGGSEVQLVESGGGFVQAGESLTLSCTSSTLTFTPYRMAWYRQAPGKQRDLVADISSGDGRTTNYADFAKGRFTISRDNIKNTVFLRMTNLKPEDTAVYYCNTFVSFVGIARSWGQGTQVTVSS
chain: B2 chain with Y131C, C136S, W148S, L150A, Y189V, H217R, Y218F
light: B1 light
notes: as for B4
As to B6, the EC50 in assay [1] was 0.592 µg/mL and 4.55 nM. In assay [2], this molecule gave a Kd of 0.984 nM, a koff of 0.000327 s⁻¹ and a kon of 333000 M⁻¹ s⁻¹.
